# Laboratory results as given in patent US20230158141A1 (YAFEI SHANGHAI BIOLOG MEDICINE SCIENCE AND TECHNOLOGY, published 2023).
# T1: IL-10R1-Fc (UniProt Q13651 22-235, limits assumed)
# T1 sequence (looked up): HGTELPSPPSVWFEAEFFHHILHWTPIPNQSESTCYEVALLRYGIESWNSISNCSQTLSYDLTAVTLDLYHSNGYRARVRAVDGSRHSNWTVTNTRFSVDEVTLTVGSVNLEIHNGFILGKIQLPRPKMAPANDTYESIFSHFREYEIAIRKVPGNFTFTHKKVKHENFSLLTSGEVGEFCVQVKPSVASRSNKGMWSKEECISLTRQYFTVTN
# Target: T1, IL-10R1-Fc
# Test: ELISA, IL-10R1-Fc coated
Decreased fold of binding to ligand after Conjugating with S48,Binding recovery (>60%),Binder
5 fold,,"IL-10 Leu131Cys-S48 (ligand, human, UniProt P22301 19-178, looked up, S48 on Cys 131, mature) SPGQGTQSENSCTHFPGNLPNMLRDLRDAFSRVKTFFQMKDQLDNLLLKESLLEDFKGYLGCQALSEMIQFYLEEVMPQAENQDPDIKAHVNSLGENLKTLRLRLRRCHRFLPCENKSKAVEQVKNAFNKCQEKGIYKAMSEFDIFINYIEAYMTMKIRN"
3 fold,,"IL-10 Lys117Cys-S48 (ligand, human, UniProt P22301 19-178, looked up, S48 on Cys 117, mature) SPGQGTQSENSCTHFPGNLPNMLRDLRDAFSRVKTFFQMKDQLDNLLLKESLLEDFKGYLGCQALSEMIQFYLEEVMPQAENQDPDIKAHVNSLGENLKTLRLRLRRCHRFLPCENCSKAVEQVKNAFNKLQEKGIYKAMSEFDIFINYIEAYMTMKIRN"
,89%,"IL-10 Met140Cys-R4-1 (ligand, human, UniProt P22301 19-178, looked up, R4-1 on Cys 140, mature) SPGQGTQSENSCTHFPGNLPNMLRDLRDAFSRVKTFFQMKDQLDNLLLKESLLEDFKGYLGCQALSEMIQFYLEEVMPQAENQDPDIKAHVNSLGENLKTLRLRLRRCHRFLPCENKSKAVEQVKNAFNKLQEKGIYKACSEFDIFINYIEAYMTMKIRN"
,69%,"IL-10 Phe143Cys-R4-8 (ligand, human, UniProt P22301 19-178, looked up, R4-8 on Cys 143, mature) SPGQGTQSENSCTHFPGNLPNMLRDLRDAFSRVKTFFQMKDQLDNLLLKESLLEDFKGYLGCQALSEMIQFYLEEVMPQAENQDPDIKAHVNSLGENLKTLRLRLRRCHRFLPCENKSKAVEQVKNAFNKLQEKGIYKAMSECDIFINYIEAYMTMKIRN"
23 fold,,"IL-10 Lys138Cys-S48 (ligand, human, UniProt P22301 19-178, looked up, S48 on Cys 138, mature) SPGQGTQSENSCTHFPGNLPNMLRDLRDAFSRVKTFFQMKDQLDNLLLKESLLEDFKGYLGCQALSEMIQFYLEEVMPQAENQDPDIKAHVNSLGENLKTLRLRLRRCHRFLPCENKSKAVEQVKNAFNKLQEKGIYCAMSEFDIFINYIEAYMTMKIRN"
,98.6%,"IL-10 Lys157Cys-R4-7 (ligand, human, UniProt P22301 19-178, looked up, R4-7 on Cys 157, mature) SPGQGTQSENSCTHFPGNLPNMLRDLRDAFSRVKTFFQMKDQLDNLLLKESLLEDFKGYLGCQALSEMIQFYLEEVMPQAENQDPDIKAHVNSLGENLKTLRLRLRRCHRFLPCENKSKAVEQVKNAFNKLQEKGIYKAMSEFDIFINYIEAYMTMCIRN"
,117%,"IL-10 Lys117Cys-R4-7 (ligand, human, UniProt P22301 19-178, looked up, R4-7 on Cys 117, mature) SPGQGTQSENSCTHFPGNLPNMLRDLRDAFSRVKTFFQMKDQLDNLLLKESLLEDFKGYLGCQALSEMIQFYLEEVMPQAENQDPDIKAHVNSLGENLKTLRLRLRRCHRFLPCENCSKAVEQVKNAFNKLQEKGIYKAMSEFDIFINYIEAYMTMKIRN"
7 fold,,"IL-10 Lys49Cys-S48 (ligand, human, UniProt P22301 19-178, looked up, S48 on Cys 49, mature) SPGQGTQSENSCTHFPGNLPNMLRDLRDAFSRVKTFFQMKDQLDNLLLCESLLEDFKGYLGCQALSEMIQFYLEEVMPQAENQDPDIKAHVNSLGENLKTLRLRLRRCHRFLPCENKSKAVEQVKNAFNKLQEKGIYKAMSEFDIFINYIEAYMTMKIRN"
,88%,"IL-10 Met39Cys-R4-1 (ligand, human, UniProt P22301 19-178, looked up, R4-1 on Cys 39, mature) SPGQGTQSENSCTHFPGNLPNMLRDLRDAFSRVKTFFQCKDQLDNLLLKESLLEDFKGYLGCQALSEMIQFYLEEVMPQAENQDPDIKAHVNSLGENLKTLRLRLRRCHRFLPCENKSKAVEQVKNAFNKLQEKGIYKAMSEFDIFINYIEAYMTMKIRN"
,97.1%,"IL-10 Phe30Cys-R4-8 (ligand, human, UniProt P22301 19-178, looked up, R4-8 on Cys 30, mature) SPGQGTQSENSCTHFPGNLPNMLRDLRDACSRVKTFFQMKDQLDNLLLKESLLEDFKGYLGCQALSEMIQFYLEEVMPQAENQDPDIKAHVNSLGENLKTLRLRLRRCHRFLPCENKSKAVEQVKNAFNKLQEKGIYKAMSEFDIFINYIEAYMTMKIRN"
62 fold,,"IL-10 Met39Cys-S48 (ligand, human, UniProt P22301 19-178, looked up, S48 on Cys 39, mature) SPGQGTQSENSCTHFPGNLPNMLRDLRDAFSRVKTFFQCKDQLDNLLLKESLLEDFKGYLGCQALSEMIQFYLEEVMPQAENQDPDIKAHVNSLGENLKTLRLRLRRCHRFLPCENKSKAVEQVKNAFNKLQEKGIYKAMSEFDIFINYIEAYMTMKIRN"
,128%,"IL-10 Lys134Cys-R4-7 (ligand, human, UniProt P22301 19-178, looked up, R4-7 on Cys 134, mature) SPGQGTQSENSCTHFPGNLPNMLRDLRDAFSRVKTFFQMKDQLDNLLLKESLLEDFKGYLGCQALSEMIQFYLEEVMPQAENQDPDIKAHVNSLGENLKTLRLRLRRCHRFLPCENKSKAVEQVKNAFNKLQECGIYKAMSEFDIFINYIEAYMTMKIRN"
5 fold,,"IL-10 Lys134Cys-S48 (ligand, human, UniProt P22301 19-178, looked up, S48 on Cys 134, mature) SPGQGTQSENSCTHFPGNLPNMLRDLRDAFSRVKTFFQMKDQLDNLLLKESLLEDFKGYLGCQALSEMIQFYLEEVMPQAENQDPDIKAHVNSLGENLKTLRLRLRRCHRFLPCENKSKAVEQVKNAFNKLQECGIYKAMSEFDIFINYIEAYMTMKIRN"
,97.6%,"IL-10 Lys138Cys-R4-7 (ligand, human, UniProt P22301 19-178, looked up, R4-7 on Cys 138, mature) SPGQGTQSENSCTHFPGNLPNMLRDLRDAFSRVKTFFQMKDQLDNLLLKESLLEDFKGYLGCQALSEMIQFYLEEVMPQAENQDPDIKAHVNSLGENLKTLRLRLRRCHRFLPCENKSKAVEQVKNAFNKLQEKGIYCAMSEFDIFINYIEAYMTMKIRN"
6 fold,,"IL-10 Phe30Cys-S48 (ligand, human, UniProt P22301 19-178, looked up, S48 on Cys 30, mature) SPGQGTQSENSCTHFPGNLPNMLRDLRDACSRVKTFFQMKDQLDNLLLKESLLEDFKGYLGCQALSEMIQFYLEEVMPQAENQDPDIKAHVNSLGENLKTLRLRLRRCHRFLPCENKSKAVEQVKNAFNKLQEKGIYKAMSEFDIFINYIEAYMTMKIRN"
,90.1%,"IL-10 Phe111Cys-R4-8 (ligand, human, UniProt P22301 19-178, looked up, R4-8 on Cys 111, mature) SPGQGTQSENSCTHFPGNLPNMLRDLRDAFSRVKTFFQMKDQLDNLLLKESLLEDFKGYLGCQALSEMIQFYLEEVMPQAENQDPDIKAHVNSLGENLKTLRLRLRRCHRCLPCENKSKAVEQVKNAFNKLQEKGIYKAMSEFDIFINYIEAYMTMKIRN"
12 fold,,"IL-10 Phe111Cys-S48 (ligand, human, UniProt P22301 19-178, looked up, S48 on Cys 111, mature) SPGQGTQSENSCTHFPGNLPNMLRDLRDAFSRVKTFFQMKDQLDNLLLKESLLEDFKGYLGCQALSEMIQFYLEEVMPQAENQDPDIKAHVNSLGENLKTLRLRLRRCHRCLPCENKSKAVEQVKNAFNKLQEKGIYKAMSEFDIFINYIEAYMTMKIRN"
,114%,"IL-10 Lys49Cys-R4-5 (ligand, human, UniProt P22301 19-178, looked up, R4-5 on Cys 49, mature) SPGQGTQSENSCTHFPGNLPNMLRDLRDAFSRVKTFFQMKDQLDNLLLCESLLEDFKGYLGCQALSEMIQFYLEEVMPQAENQDPDIKAHVNSLGENLKTLRLRLRRCHRFLPCENKSKAVEQVKNAFNKLQEKGIYKAMSEFDIFINYIEAYMTMKIRN"
3 fold,,"IL-10 Lys157Cys-S48 (ligand, human, UniProt P22301 19-178, looked up, S48 on Cys 157, mature) SPGQGTQSENSCTHFPGNLPNMLRDLRDAFSRVKTFFQMKDQLDNLLLKESLLEDFKGYLGCQALSEMIQFYLEEVMPQAENQDPDIKAHVNSLGENLKTLRLRLRRCHRFLPCENKSKAVEQVKNAFNKLQEKGIYKAMSEFDIFINYIEAYMTMCIRN"
3 fold,,"IL-10 Met140Cys-S48 (ligand, human, UniProt P22301 19-178, looked up, S48 on Cys 140, mature) SPGQGTQSENSCTHFPGNLPNMLRDLRDAFSRVKTFFQMKDQLDNLLLKESLLEDFKGYLGCQALSEMIQFYLEEVMPQAENQDPDIKAHVNSLGENLKTLRLRLRRCHRFLPCENKSKAVEQVKNAFNKLQEKGIYKACSEFDIFINYIEAYMTMKIRN"
